# Experimental data reported in the supplement of paper PMC9112550, “Optimization of the antimicrobial peptide Bac7 by deep mutational scanning” (BMC Biology, 2022).
# Tested on: Escherichia coli TOP10
# Test: shrunken log2 fold change of peptide-encoding DNA abundance (4.5 h post-induction vs induction); higher = less antimicrobial activity (less host growth inhibition)
# Details: time post-induction: 4.5 h; library: site-saturation at positions 5, 18, 19, 20
# 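Also: peptides expressed intracellularly from a pBAD plasmid library in pooled LB shake-flask culture, induced with 0.3% L-arabinose, DNA abundance read by NGS, three biological replicates, DESeq2 with apeglm shrinkage.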
row,Sequence,shrunken log2 fold change
1,RRIRRRPPRLPRPRPRPKAHPRP,0.515
2,RRIRDRPPRLPRPRPRPSSTPRP,0.00883
3,RRIRVRPPRLPRPRPRPYCWPRP,-0.0314
4,RRIRMRPPRLPRPRPRPISNPRP,-0.0517
5,RRIRMRPPRLPRPRPRPTSEPRP,0.511
6,RRIRIRPPRLPRPRPRPSHHPRP,-0.941
7,RRIRKRPPRLPRPRPRPNYNPRP,0.0883
8,RRIRCRPPRLPRPRPRPMQGPRP,-0.0484
9,RRIRHRPPRLPRPRPRPQKHPRP,-0.992
10,RRIRWRPPRLPRPRPRPGLRPRP,0.53
11,RRIRIRPPRLPRPRPRPTLQPRP,0.00305
12,RRIRLRPPRLPRPRPRPLDKPRP,-0.122
13,RRIRNRPPRLPRPRPRPMVQPRP,-0.0629
14,RRIRKRPPRLPRPRPRPILMPRP,0.0297
15,RRIRPRPPRLPRPRPRPKSQPRP,-0.193
16,RRIRARPPRLPRPRPRPPVDPRP,0.545
17,RRIRWRPPRLPRPRPRPAEMPRP,0.213
18,RRIRGRPPRLPRPRPRPIRVPRP,-0.189
19,RRIRERPPRLPRPRPRPHLEPRP,-0.0328
20,RRIRRRPPRLPRPRPRPDKDPRP,0.00839
21,RRIRARPPRLPRPRPRPMSIPRP,-0.118
22,RRIRGRPPRLPRPRPRPWDSPRP,-0.479
23,RRIRCRPPRLPRPRPRPCDLPRP,3.04
24,RRIRMRPPRLPRPRPRPATAPRP,1.17
25,RRIRFRPPRLPRPRPRPEFEPRP,0.122

row,Sequence,shrunken log2 fold change
1,RRIRSRPPRLPRPRPRPCYSPRP,-0.839
2,RRIRGRPPRLPRPRPRPHLSPRP,0.283
3,RRIRLRPPRLPRPRPRPPRKPRP,0.659
4,RRIRMRPPRLPRPRPRPEEGPRP,0.0237
5,RRIRDRPPRLPRPRPRPADIPRP,-0.00114
6,RRIRKRPPRLPRPRPRPPFDPRP,0.586
7,RRIRWRPPRLPRPRPRPHEMPRP,0.433
8,RRIRKRPPRLPRPRPRPNNFPRP,-0.0233
9,RRIRTRPPRLPRPRPRPTYAPRP,-0.0854
10,RRIRNRPPRLPRPRPRPSLYPRP,-0.0524
11,RRIRSRPPRLPRPRPRPSTVPRP,-0.353
12,RRIRHRPPRLPRPRPRPLYTPRP,-0.57
13,RRIRERPPRLPRPRPRPTWKPRP,-0.012
14,RRIRSRPPRLPRPRPRPYVEPRP,-0.442
15,RRIRKRPPRLPRPRPRPGQDPRP,0.37
16,RRIRIRPPRLPRPRPRPCVKPRP,-0.828
17,RRIRLRPPRLPRPRPRPSGVPRP,-0.0863
18,RRIRPRPPRLPRPRPRPNGHPRP,-0.0534
19,RRIRTRPPRLPRPRPRPMKLPRP,-0.192
20,RRIRHRPPRLPRPRPRPNFFPRP,0.307
21,RRIRERPPRLPRPRPRPHLSPRP,-0.19
22,RRIRSRPPRLPRPRPRPSRYPRP,-0.148
23,RRIRLRPPRLPRPRPRPINHPRP,-0.654
24,RRIRIRPPRLPRPRPRPQIKPRP,-0.853
25,RRIRLRPPRLPRPRPRPWANPRP,0.0875

row,Sequence,shrunken log2 fold change
1,RRIRYRPPRLPRPRPRPPTDPRP,-0.181
2,RRIRKRPPRLPRPRPRPSMGPRP,-0.267
3,RRIRFRPPRLPRPRPRPSDYPRP,-0.219
4,RRIRTRPPRLPRPRPRPTLDPRP,0.249
5,RRIRRRPPRLPRPRPRPEQHPRP,0.592
6,RRIRQRPPRLPRPRPRPDCGPRP,2.88
7,RRIRERPPRLPRPRPRPESWPRP,0.343
8,RRIRYRPPRLPRPRPRPWQVPRP,-0.09
9,RRIRDRPPRLPRPRPRPVPWPRP,0.189
10,RRIRSRPPRLPRPRPRPHATPRP,0.378
11,RRIRQRPPRLPRPRPRPNTLPRP,0.013
12,RRIRDRPPRLPRPRPRPTQEPRP,0.604
13,RRIRSRPPRLPRPRPRPHLVPRP,-0.118
14,RRIRYRPPRLPRPRPRPPCYPRP,-0.378
15,RRIRWRPPRLPRPRPRPFCLPRP,0.0169
16,RRIRHRPPRLPRPRPRPGTPPRP,0.104
17,RRIRPRPPRLPRPRPRPVVKPRP,-0.181
18,RRIRTRPPRLPRPRPRPRHNPRP,-0.293
19,RRIRSRPPRLPRPRPRPCNKPRP,-0.225
20,RRIRVRPPRLPRPRPRPRHDPRP,0.129
21,RRIRTRPPRLPRPRPRPRVYPRP,-0.454
22,RRIRCRPPRLPRPRPRPCESPRP,-0.0611
23,RRIRYRPPRLPRPRPRPIADPRP,0.0616
24,RRIRMRPPRLPRPRPRPTKAPRP,0.26
25,RRIRNRPPRLPRPRPRPWGSPRP,-0.275

row,Sequence,shrunken log2 fold change
1,RRIRGRPPRLPRPRPRPYCMPRP,-0.148
2,RRIRYRPPRLPRPRPRPPYNPRP,-1.41
3,RRIRRRPPRLPRPRPRPESAPRP,0.493
4,RRIRGRPPRLPRPRPRPLGAPRP,1.07
5,RRIRRRPPRLPRPRPRPSADPRP,0.247
6,RRIRQRPPRLPRPRPRPSCTPRP,-0.167
7,RRIRNRPPRLPRPRPRPPFGPRP,0.291
8,RRIRQRPPRLPRPRPRPPQPPRP,1.1
9,RRIRNRPPRLPRPRPRPFVYPRP,-0.0264
10,RRIRNRPPRLPRPRPRPEKPPRP,-0.233
11,RRIRDRPPRLPRPRPRPEQKPRP,0.0533
12,RRIRVRPPRLPRPRPRPGRLPRP,-0.0194
13,RRIRKRPPRLPRPRPRPEGEPRP,-0.0225
14,RRIRLRPPRLPRPRPRPEPMPRP,-0.0888
15,RRIRARPPRLPRPRPRPYCEPRP,0.0687
16,RRIRLRPPRLPRPRPRPSINPRP,-0.32
17,RRIRSRPPRLPRPRPRPALEPRP,0.407
18,RRIRMRPPRLPRPRPRPTKCPRP,0.331
19,RRIRARPPRLPRPRPRPMFIPRP,0.0587
20,RRIRLRPPRLPRPRPRPPCWPRP,0.16
21,RRIRRRPPRLPRPRPRPFFWPRP,0.381
22,RRIRERPPRLPRPRPRPMDWPRP,0.0151
23,RRIRNRPPRLPRPRPRPIPEPRP,-0.147
24,RRIRKRPPRLPRPRPRPQSKPRP,0.116
25,RRIRDRPPRLPRPRPRPRCCPRP,0.18

row,Sequence,shrunken log2 fold change
1,RRIRHRPPRLPRPRPRPMPWPRP,-0.032
2,RRIRSRPPRLPRPRPRPCCIPRP,-0.197
3,RRIRARPPRLPRPRPRPTNHPRP,-0.181
4,RRIRGRPPRLPRPRPRPGEAPRP,1.48
5,RRIRCRPPRLPRPRPRPRGFPRP,0.249
6,RRIRDRPPRLPRPRPRPCTMPRP,-0.0909
7,RRIRTRPPRLPRPRPRPNNDPRP,-0.797
8,RRIRLRPPRLPRPRPRPIKQPRP,-0.00202
9,RRIRARPPRLPRPRPRPGDLPRP,0.796
10,RRIRKRPPRLPRPRPRPDQVPRP,0.0449
11,RRIRTRPPRLPRPRPRPKGDPRP,0.00199
12,RRIRDRPPRLPRPRPRPCMGPRP,-0.0733
13,RRIRIRPPRLPRPRPRPATIPRP,-0.201
14,RRIRERPPRLPRPRPRPMAPPRP,1.59
15,RRIRFRPPRLPRPRPRPAYSPRP,0.00204
16,RRIRCRPPRLPRPRPRPMWPPRP,0.481
17,RRIRVRPPRLPRPRPRPTQWPRP,0.12
18,RRIRMRPPRLPRPRPRPANHPRP,0.0312
19,RRIRLRPPRLPRPRPRPKHYPRP,-0.406
20,RRIRKRPPRLPRPRPRPNYIPRP,-0.0745
21,RRIRWRPPRLPRPRPRPDWSPRP,0.0189
22,RRIRARPPRLPRPRPRPQINPRP,-0.0458
23,RRIRERPPRLPRPRPRPLEGPRP,-0.363
24,RRIRSRPPRLPRPRPRPTSEPRP,0.292
25,RRIRWRPPRLPRPRPRPARLPRP,0.523
